From paper PMC8998196, “A Second Gamma-Glutamylpolyamine Synthetase, GlnA2, Is Involved in Polyamine Catabolism in Streptomyces coelicolor” (International Journal of Molecular Sciences, 2022)

What was measured:
GlnA3 (His-GlnA3) = target: T1, GlnA3 (His-GlnA3) (Streptomyces coelicolor, UniProt Q9KZC7); assay: phosphate release (molybdate) modified GS assay; type: biochemical; conditions: 50 mM substrate, 10 µg enzyme, co-substrates glutamate and ATP, 30 °C, 5 min
T1 construct: His-tagged GlnA3
T1 sequence (Q9KZC7 1-466): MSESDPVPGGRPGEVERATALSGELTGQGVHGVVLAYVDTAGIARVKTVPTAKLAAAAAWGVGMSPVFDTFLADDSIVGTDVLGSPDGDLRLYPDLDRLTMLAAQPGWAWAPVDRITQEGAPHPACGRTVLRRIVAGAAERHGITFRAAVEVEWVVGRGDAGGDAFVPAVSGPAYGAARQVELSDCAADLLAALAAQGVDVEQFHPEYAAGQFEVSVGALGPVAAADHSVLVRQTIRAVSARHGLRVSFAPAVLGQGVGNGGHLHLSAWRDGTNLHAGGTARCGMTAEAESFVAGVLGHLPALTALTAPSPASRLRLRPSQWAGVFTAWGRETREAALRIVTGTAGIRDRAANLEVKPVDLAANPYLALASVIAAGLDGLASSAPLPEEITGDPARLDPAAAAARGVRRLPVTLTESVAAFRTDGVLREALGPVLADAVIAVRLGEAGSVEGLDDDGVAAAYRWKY

[1] = substrate: NCCCCN; assay: phosphate release (molybdate) modified GS assay, Michaelis-Menten fit; type: biochemical, Streptomyces coelicolor; conditions: co-substrates glutamate and ATP, Mg2+, 30 °C, 5 min
[2] = substrate: N[C@@H](CCC(=O)O)C(=O)O; assay: as above; type: biochemical, Streptomyces coelicolor; conditions: polyamine and ATP as co-substrates, Mg2+, 30 °C, 5 min, L form not given
[3] = substrate: Nc1ncnc2c1ncn2[C@@H]1O[C@H](COP(=O)(O)OP(=O)(O)OP(=O)(O)O)[C@@H](O)[C@H]1O; assay: as above; type: biochemical, Streptomyces coelicolor; conditions: polyamine and glutamate as co-substrates, Mg2+, 30 °C, 5 min

Molecule: NCCCCNCCCN [spermidine]
- phosphate release (molybdate) modified GS assay (GlnA3 (His-GlnA3)): GlnA3 demonstrated a significant specificity towards spermidine and spermine, compared with GlnA2

Molecule: NCCCNCCCCNCCCN [spermine]
- phosphate release (molybdate) modified GS assay (GlnA3 (His-GlnA3)): GlnA3 demonstrated a significant specificity towards spermidine and spermine, compared with GlnA2

B1: GlnA2 (His-GlnA2) (Streptomyces coelicolor A3(2)) (protein)
chain: MDKQQEFVIRTLEERDIRFVRLWFTDVLGFLKSVAVAPAELEQAFDEGIGFDGSAIEGFARVYESDMIAKPDPSTFQVLPWRAEAPGTARMFCDILMPDGSPSFADPRYVLKRALARTSDLGFTFYTHPEIEFFLLKDKPVDGSVPTPADNSGYFDHTPQNIGMDFRRQAITMLESMGISVEFSHHEGAPGQQEIDLRYADALSTADNVMTFRLVMKQVALEQGLQATFMPKPFSEYPGSGMHTHLSLFEGDRNAFYESGAEYQLSKVGRSFIAGLLRHAAEISAVTNQWVNSYKRIWGGTERTAGAGGEAPSYICWGHNNRSALVRVPMYKPGKTGSARVEVRSIDSGANPYLTYAVLLAAGLKGIEEGYELPPGAEDDVWALSDAERRALGIEPLPQNLGEALALMERSDLVAETLGEHVFDFFLRNKRQEWEEYRSQVTAFELRKSLPVL
notes: dodecamer only modelled
- Km [1]: 550 ± 100 µM
- Km [2]: 1060 ± 200 µM
- Km [3]: 130 ± 100 µM
